In publication PMC4144708 (Biochemistry, 2014):

Legend:
[1] = substrate: [H][C@@]12COP(=O)(O)O[C@@]1([H])[C@@H](O)[C@H](n1cnc3c(=O)[nH]c(N)nc31)O2; assay: [3H]cGMP hydrolysis, scintillation counting, Michaelis-Menten fit; type: biochemical, Saccharomyces cerevisiae; conditions: 50 mM Tris-HCl pH 7.5, room temperature, no added ion, labelled compound
SEC = molecular target: the molecule itself; assay: SEC

B1: yeast phosphodiesterase-1 (yPDE1), full length (residues 1-369) (enzyme, Saccharomyces cerevisiae, UniProt P22434 1-369, looked up)
chain: MVVFEITILGANGGPTEYGTQCFILKPARTEDPELIAVDGGAGMYQLREMLVQGRNENEGDDELVPSFYEHDREPIEFFIDSKLNIQKGLSKSLLQSLKRQGEHFESANTMKKTYEVFQGITDYYITHPHLDHISGLVVNSPSIYEQENSKKKTIWGLPHTIDVLQKHVFNDLIWPDLTAERSRKLKLKCLNPKEVQKCTIFPWDVIPFKVHHGIGVKTGAPVYSTFYIFRDRKSKDCIIVCGDVEQDRRESEESLLEEFWSYVAENIPLVHLKGILVECSCPLSSKPEQLYGHLSPIYLINELSNLNTLYNSSKGLSGLNVIVTHVKSTPAKRDPRLTILEELRFLAEERNLGDLRISIALEGHTLFL
Question: For B1, which Km [1] is on record?
Answer: The Km was 104.7 ± 10.2 µM.

Question: And the kcat [1]?
Answer: The kcat was 11.8 ± 1 s⁻¹.

Question: And the kcat/Km [1]?
Answer: The kcat/Km was 113000 M⁻¹ s⁻¹.

Question: And the “stoichiometry N” value (SEC)?
Answer: Its value is 2.
